PMC6186785, “Discovery of Bacterial Deaminases That Convert 5-Fluoroisocytosine Into 5-Fluorouracil” (Frontiers in Microbiology, 2018)

B1: Vcz deaminase (uncultured Hafnia sp.; H2D) (protein)
chain: MDKRTLLFKNAELLVTMDDERREIRGGCLLVEGNRIVAVGGDELCAAPADEEIDLRGHIVIPGLINTHHHMFQSLTRVIPDAQDGELFDWLNNLYPIWAGLTPEMIRISTQTAMAELMLSGCTTSSDHLYVYPNGCRLDDSIDGAREIGMRFHACRGSMSVGRSKGGLPPDELVENEQAILEDSLRLIHSYHDAQRYSMLRIALAPCSPFSVSRELMVKTAQMAREQGVSLHTHLAENDSDVSYSQTHFGMTPAQYAEDLGWVGSDVWHAHCVKLDRAGISLFARTGTGVAHCPCSNMRLASGIAPIRAMLDEGVSVGLGVDGSASNDAGNMIAETRQAMLLQRVGFGPDAMNARQALEIATRGGAKVLNRDDIGYLATGMAADFVAFDLNTLNLAGAKHDPLAALVFCTPGNVAFSVINGQVVIREGVLQTIDLPSVVQQHNRLACLLVNRHRL
notes: full-length ORF, C-terminal 6xHis (pET28a NcoI/XhoI), E. coli BL21(DE3); primers encode N-terminus MDKRTL and C-terminus NRHRL before LE-tag
B2: URA3 deaminase (uncultured Pseudomonas sp.) (protein)
chain: MAKTLLVKNAELLVTMDGQRREIRQGGMFIEDNRIVQVGPAAELPQTADEVLDLKGKVVIPGLVNTHHHMYQSLTRVVPAAQDGELFNWLTNLYPIWARLTPEMIQVSTQTAMAELILSGCTTSSDHLYIYPNGCKLDDSIHAAGEIGMRFHAARGSMSVGRSQGGLPPDSVVEKEADILKESQRLIEDYHDAAHGSMLRVVVAPCSPFSVSRDLMREAAVLARNYGVSLHTHLAENVNDIAYSREKFGMTPAEYAEDLGWVGHDVWHAHCVQLDEHGIELFARTGTGVAHCPCSNMRLASGIAPVRRMRDAGVPVGLGVDGSASNDGASMIGEVRQALLLQRVGFGPDAMTAREALEIATLGGAKVLNRDDIGALAPGMVADFVAFDLNHIAYAGALHDPLAALVFCTPTHVSTSVINGKVVVRDGQLVTVDLPRVLERHNQLARQLVMGE
notes: full-length ORF, C-terminal 6xHis (pET21b NdeI/XhoI), E. coli BL21(DE3); primers encode N-terminus MAKTLL and C-terminus VMGE before LE-tag

What was measured:
Experiment in all cases: purified protein
purified protein [1] = substrate: Nc1nccc(O)n1; conditions: 50 mM Tris-HCl pH 8.0, 21 °C, substrate range 5–700 μM
purified protein [2] = substrate: Nc1ncc(F)c(=O)[nH]1; format: biochemical, uncultured Hafnia sp.; conditions: 50 mM Tris-HCl pH 8.0, 21 °C
purified protein [3] = substrate: Nc1ncc(F)c(=O)[nH]1; format: biochemical, uncultured Pseudomonas sp.; conditions: 50 mM Tris-HCl pH 8.0, 21 °C, sentence prints 'isocytosine', evident slip for 5-fluoroisocytosine (second URA3 set, after Vcz 5-fluoroisocytosine)

| Protein | Km (purified protein [1]) [µM] | kcat (purified protein [1]) [s⁻¹] | Km (purified protein [2]) [µM] | kcat (purified protein [2]) [s⁻¹] | Km (purified protein [3]) [µM] | kcat (purified protein [3]) [s⁻¹] |
| --- | --- | --- | --- | --- | --- | --- |
| B1 | 1860 ± 45 | 1.64 ± 0.06 | 1270 ± 128 | 0.1 ± 0.007 |  |  |
| B2 | 1085 ± 120 | 2.00 ± 0.15 |  |  | 1330 ± 305 | 0.02 ± 0.003 |
